According to patent US20210300999A1:

Target: SARS-CoV-2 S receptor-binding domain (SRBD), residues 319-541 (SARS-CoV-2) (UniProt P0DTC2)
Test: ELISA on coated antigen

“rCR3022 (recombinant form of the cross-reactive SARS-CoV SRBD mAb CR3022) (antibody)” showed an EC50 of 1.1 ng/mL.
